According to the supplement of paper PMC10724198:
± gives the standard deviation of the averaged measurements.

tested on: Saccharomyces cerevisiae; assay: protein stability index of tFT-peptide fusion (C-terminal peptide) (PSI (0-1 scale)); higher = more stable (slower turnover); conditions: genetic background: wild type; temperature: 37 C
Method: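 MPS profiling in S. cerevisiae of the tFT-X12 degron library: putative degron peptides plus stable controls, 12 aa, fused to the C-terminus of a sfGFP-mCherry timer. Cells are FACS-sorted into 8 mCherry/sfGFP bins and deep-sequenced. PSI runs from 0 (unstable) to 1 (stable). Backgrounds are wild type, das1Δ and doa10Δ at 30 °C, and wild type, das1Δ, cdc34-1 and cdc53-1 at 37 °C; 2-3 technical replicates each.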
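Further: PSI is a weighted mean of sequencing reads over stability bins, variants kept only with over 10 reads, mCherry proximal and sfGFP distal, peptide attached via GGGS linker.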

Sequence	protein stability index
CLTGWFGIFSAP	0.737 ± 0.015
CMIACYALLRLL	0.0702 ± 0.0087
CPALYMPPPVLV	0.215 ± 0.0041
CPPPPPSLLLLC	0.29753 ± 0.00015
CRLCVFGVWFCG	0.5405 ± 0.0014
CSPAFRPIVFVL	0.176 ± 0.0079
CSVPLGVFAIVV	0.4894 ± 0.0029
CSYPTLSMYSTT	0.71 ± 0.011
CTFFCICVFFLL	0.4 ± 0.0063
CTLVVGLFVLVV	0.322 ± 0.0064
FFCRWGSTVTLL	0.559 ± 0.011
GAVRGWGWVSFV	0.436 ± 0.0078
GFYQSGGLVVVV	0.64 ± 0.028
GGGGGGGDVLVW	0.392 ± 0.0048
LPLPPPGSPPPL	0.698 ± 0.0069
PSLVFLPPPPPR	0.72099 ± 0.00046
RDTTQRRRKTAA	0.60824 ± 0.00016
RWRLWGGWWVVG	0.419 ± 0.015
TGPVFVSFRLLH	0.627 ± 0.0095
TLDCKFGRGGIG	0.392 ± 0.0016
WLFAILPSRLIA	0.0638 ± 0.0027

tested on: Saccharomyces cerevisiae; assay: as above; conditions: genetic background: wild type; temperature: 30 C

Sequence	protein stability index
ACFLFPSHLLIS	0.305 ± 0.0099
AFCGRRGHQFYN	0.263 ± 0.061
AFRFFWFFFFTS	0.445 ± 0.03
AFSISPFRLRMV	0.418 ± 0.017
AFWLFSGIARLA	0.407 ± 0.041
AGESLRAIAVLY	0.42 ± 0.018
AGLTLLWPLCLL	0.3669 ± 0.0023
AGTLLLGYGILA	0.43845 ± 0.00034
AGVRCPLFWLVC	0.156 ± 0.0027
AHPTLILTNKIA	0.237 ± 0.0044
ALLIYFLCRCIP	0.44 ± 0.034
ARRFLVRRFILF	0.282 ± 0.0087
ASHLGLGCLVVC	0.491 ± 0.0059
AVRLPFPLLVHL	0.473 ± 0.028
AVVCSRLVLFCL	0.512 ± 0.026
CALLLLSVRAGQ	0.474 ± 0.019
CCSRFLMLRILV	0.146 ± 0.014
CFFFCSLFLSFL	0.3662 ± 0.0032
CFFMVGFVFYFV	0.296 ± 0.014
CFFSLLLLIFSV	0.377 ± 0.032
CFLLVSLGILCW	0.176 ± 0.094
CFPFYVSCLLVL	0.321 ± 0.027
CFTLSLCLAFFF	0.377 ± 0.014
CGLLSALSCLVF	0.511 ± 0.02
CIVFVYCLFSCP	0.32 ± 0.0041
CKRWGVVSYVFV	0.493 ± 0.017

Sequence	protein stability index
CLCFFLICFILF	0.3151 ± 0.002
CLCFFMSILWWV	0.4269 ± 0.0011
CLCVLVSFFFGL	0.288 ± 0.074
CLFHQFITLLVN	0.0965 ± 0.019
CLFLNCRFYMFL	0.821 ± 0.035
CLFSPFCFILFC	0.12318 ± 9.1e-05
CLTGWFGIFSAP	0.7344 ± 0.0021
CMIACYALLRLL	0.11 ± 0.039
CPALYMPPPVLV	0.2594 ± 0.0017
CPPPPPSLLLLC	0.223 ± 0.0038
CRLCVFGVWFCG	0.499 ± 0.033
CSPAFRPIVFVL	0.225 ± 0.013
CSVPLGVFAIVV	0.48 ± 0.019
CSYPTLSMYSTT	0.74 ± 0.072
CTFFCICVFFLL	0.392 ± 0.042
CTLVVGLFVLVV	0.362 ± 0.0094
YFLPLLCRSPSL	0.707 ± 0.0095
YFPGILFGAIFS	0.668 ± 0.07
YFTNSVPVGTVA	0.501 ± 0.0076
YGSQAYAIDSKP	0.6369 ± 0.0009
YGSSFRLVFSVT	0.583 ± 0.0074
YGVEWGAESNLY	0.8019 ± 0.0068
YHIGSINLTVRQ	0.778 ± 0.083
YHLISSVRLPSS	0.731 ± 0.033
YIDLLTRVCIRR	0.6921 ± 0.0024
YIKKTTPTIERG	0.7157 ± 0.0039

Sequence	protein stability index
YIRSYRITKREE	0.656 ± 0.035
YISEKKKIEERK	0.69 ± 0.032
YKGYEIIGSVQG	0.72 ± 0.023
YKKLTRKKIQDK	0.781 ± 0.0088
YKRKTKMQRVSN	0.627 ± 0.01
YLEQALLDVQTD	0.756 ± 0.021
YLIGRIIYFFGR	0.582 ± 0.0021
YLLLPPPPPPSL	0.722 ± 0.0098
YLNVVSSFYTCS	0.684 ± 0.02
YLPRREAALRRV	0.7118 ± 0.0034
YLSACLCGGFCS	0.684 ± 0.047
YLVSRRSGCDLE	0.683 ± 0.051
YMCPSFCLPLFP	0.731 ± 0.1
YNDGSNPYLSRS	0.722 ± 0.065
YNFLQSGADPNR	0.721 ± 0.016
YNLASGIEVPID	0.664 ± 0.013
YNSSSYCGGGCG	0.6844 ± 0.0053
YPARSPPSPLSL	0.686 ± 0.025
YPDYTSATGNIR	0.666 ± 0.016
YPHQRGRPDAHH	0.71 ± 0.021
YPLRCPITATHA	0.616 ± 0.099
YPPPRPDLPLLQ	0.679 ± 0.016
YPSRSPFLSLSC	0.683 ± 0.028
YPTSLLHLHSPP	0.708 ± 0.044
YQLEDSNEKVEN	0.712 ± 0.085
YRKAAGSQDRAV	0.663 ± 0.018

Sequence	protein stability index
YRVPWIVESFVD	0.751 ± 0.087
YSGFYIRRGLTW	0.689 ± 0.011
YSILYRMQNSKI	0.696 ± 0.021
YSKVGCRHSYHT	0.669 ± 0.017
YSPAYDHLRPDH	0.7034 ± 0.0069
YSPFCPSASPWA	0.712 ± 0.023
YSPSPPSFAFSS	0.801 ± 0.079
YSPVPPPTRPPL	0.7069 ± 0.0017
YSREVVGKQLFM	0.693 ± 0.027
YSRYAASYSMVV	0.688 ± 0.021
YTGRFDSSDIWY	0.818 ± 0.057
YTGVCEWRANVH	0.689 ± 0.0096
YTKTGRQRHHCR	0.677 ± 0.011
YTSELPVLARRH	0.633 ± 0.021
YVALSTGPLRTP	0.6828 ± 0.0065
YVELTGRITTKL	0.716 ± 0.038
YVEVIDERYPCV	0.757 ± 0.021
YVGLAAGEVGMG	0.661 ± 0.02
YVQFISFAGTRP	0.724 ± 0.025
YVSHLLMVGRFI	0.616 ± 0.01
YWLCITECHIRK	0.541 ± 0.0092
YYEVVCPLQHRI	0.46 ± 0.16
YYGCGAFGFSVR	0.695 ± 0.014
